From patent US20190359663A1

How the values were obtained:
[1] = molecular target: L-FABP M19L/M74L/M113L (human) (UniProt P07148); assay: sandwich ELISA (RENAPRO L-FABP Test TMB) with 1 mass % BSA; 8-iso-prostaglandin F2α added to L-FABP at various concentrations, 1.5 h room temperature; untreated sample = 100
[2] = molecular target: wild type human L-FABP protein (liver-type fatty acid-binding protein) (human) (UniProt P07148); assay: as above
[3] = molecular target: wild type human L-FABP protein (liver-type fatty acid-binding protein) (human) (UniProt P07148); assay: sandwich ELISA; L-FABP stored at 37 C for two weeks in BSA-containing buffer; sample stored at 4 C = 100 (FIG. 19)
[4] = molecular target: L-FABP bound to arachidonic acid (human) (UniProt P07148); assay: as above
[5] = molecular target: L-FABP bound to oleic acid (human) (UniProt P07148); assay: sandwich ELISA; L-FABP stored at 37 C for two weeks in BSA-containing buffer; sample stored at 4 C = 100 (FIG. 20)
[6] = molecular target: wild type human L-FABP protein (liver-type fatty acid-binding protein) (human) (UniProt P07148); assay: as above
[7] = molecular target: L-FABP M19L/M74L/M113L (human) (UniProt P07148); assay: sandwich ELISA (RENAPRO L-FABP Test TMB); L-FABP stored at 25 C with BSA, measured every week for four weeks; sample stored at -80 C = 100
[8] = molecular target: wild type human L-FABP protein (liver-type fatty acid-binding protein) (human) (UniProt P07148); assay: as above
[9] = molecular target: L-FABP that had been oxidation-treated with 40 mM AAPH (human) (UniProt P07148); assay: sandwich ELISA (RENAPRO L-FABP Test TMB); L-FABP stored at 37 C, measured every week for two weeks; sample stored at 4 C = 100
[10] = molecular target: wild type human L-FABP protein (liver-type fatty acid-binding protein) (human) (UniProt P07148); assay: as above
[11] = molecular target: L-FABP M19L/M74L/M113L (human) (UniProt P07148); assay: sandwich ELISA (RENAPRO L-FABP Test TMB) with 1 mass % BSA; oleic acid added to L-FABP at various concentrations, 1.5 h room temperature; untreated sample = 100
[12] = molecular target: wild type human L-FABP protein (liver-type fatty acid-binding protein) (human) (UniProt P07148); assay: as above
[13] = molecular target: L-FABP M19L/M74L/M113L (human) (UniProt P07148); assay: sandwich ELISA (RENAPRO L-FABP Test TMB) with 1 mass % BSA; arachidonic acid added to L-FABP at various concentrations, 1.5 h room temperature; untreated sample = 100
[14] = molecular target: wild type human L-FABP protein (liver-type fatty acid-binding protein) (human) (UniProt P07148); assay: as above
[15] = molecular target: L-FABP M19L/M74L/M113L (human) (UniProt P07148); assay: sandwich ELISA (RENAPRO L-FABP test TMB); L-FABP reacted with 0 to 5 mM AAPH for 1 h at room temperature with BSA; untreated sample = 100
[16] = molecular target: wild type human L-FABP protein (liver-type fatty acid-binding protein) (human) (UniProt P07148); assay: as above
L-FABP M19L (human) = L-FABP M19L (human) (UniProt P07148); assay: ELISA (kit not named in this example); OD ratio with and without oxidation treatment with 10 mM AAPH for 1 h at 25 C; FIG. 23
[17] = molecular target: L-FABP WT treated with 0.5 mM AAPH (human) (UniProt P07148); assay: as above
[18] = molecular target: L-FABP M19L/M113L (human) (UniProt P07148); assay: as above
[19] = molecular target: L-FABP bound to oleic acid (human) (UniProt P07148); assay: as above
[20] = molecular target: L-FABP WT treated with 4 mM AAPH (human) (UniProt P07148); assay: as above
[21] = molecular target: L-FABP M19L/M74L/M113L (human) (UniProt P07148); assay: as above
[22] = molecular target: wild type human L-FABP protein (liver-type fatty acid-binding protein) (human) (UniProt P07148); assay: as above
[23] = molecular target: L-FABP bound to arachidonic acid (human) (UniProt P07148); assay: as above
[24] = molecular target: L-FABP WT treated with 0.5 mM AAPH (human) (UniProt P07148); assay: ELISA (kit not named in this example); OD ratio with and without oxidation treatment with 10 mM AAPH for 1 h at 25 C; FIG. 21
[25] = molecular target: L-FABP WT treated with 4 mM AAPH (human) (UniProt P07148); assay: as above
[26] = molecular target: L-FABP M19L/M74L/M113L (human) (UniProt P07148); assay: as above
[27] = molecular target: wild type human L-FABP protein (liver-type fatty acid-binding protein) (human) (UniProt P07148); assay: as above
[28] = molecular target: L-FABP M19L/M74L/M113L (human) (UniProt P07148); assay: sandwich ELISA (RENAPRO L-FABP Test TMB); L-FABP stored at 37 C with BSA, measured every week for four weeks; sample stored at -80 C = 100
[29] = molecular target: wild type human L-FABP protein (liver-type fatty acid-binding protein) (human) (UniProt P07148); assay: as above

Substance: labeled antibody of the sandwich ELISA kit RENAPRO L-FABP Test TMB (CMIC HOLDINGS Co., Ltd.)
- ELISA measured value (OD 450 nm), % of untreated sample [1]: 96 to 101%
- ELISA measured value (OD 450 nm), % of untreated sample [2]: 95 to 118%
- ELISA measured value, % of sample stored at 4 C [3]: 118 to 132%
- ELISA measured value, % of sample stored at 4 C [4]: 99.9 to 100%
- ELISA measured value, % of sample stored at 4 C [5]: 100 to 110%
- ELISA measured value, % of sample stored at 4 C [6]: 120 to 130%
- ELISA measured value (OD 450 nm), % of sample stored at -80 C [7]: 101 to 111%
- ELISA measured value (OD 450 nm), % of sample stored at -80 C [8]: 110 to 128%
- ELISA measured value (OD 450 nm), % of sample stored at 4 C [9]: 94 to 102%
- ELISA measured value (OD 450 nm), % of sample stored at 4 C [10]: 114 to 130%
- ELISA measured value (OD 450 nm), % of untreated sample [11]: 92 to 107%
- ELISA measured value (OD 450 nm), % of untreated sample [12]: 100 to 124%
- ELISA measured value (OD 450 nm), % of untreated sample [13]: 88 to 103%
- ELISA measured value (OD 450 nm), % of untreated sample [14]: 104 to 220%
- ELISA measured value (OD 450 nm), % of untreated sample [15]: 102 to 107%
- ELISA measured value (OD 450 nm), % of untreated sample [16]: 112 to 121%
- coefficient of change in oxidation (OD ratio, oxidation-treated / not treated) (L-FABP M19L (human)): < 1.4
- coefficient of change in oxidation (OD ratio, oxidation-treated / not treated) [17]: < 1.4
- coefficient of change in oxidation (OD ratio, oxidation-treated / not treated) [18]: < 1.4
- coefficient of change in oxidation (OD ratio, oxidation-treated / not treated) [19]: < 1.4
- coefficient of change in oxidation (OD ratio, oxidation-treated / not treated) [20]: < 1.4
- coefficient of change in oxidation (OD ratio, oxidation-treated / not treated) [21]: < 1.4
- coefficient of change in oxidation (OD ratio, oxidation-treated / not treated) [22]: 1.8
- coefficient of change in oxidation (OD ratio, oxidation-treated / not treated) [23]: < 1.4
- coefficient of change in oxidation (OD ratio, oxidation-treated / not treated) [24]: < 1.3
- coefficient of change in oxidation (OD ratio, oxidation-treated / not treated) [25]: < 1.3
- coefficient of change in oxidation (OD ratio, oxidation-treated / not treated) [26]: < 1.3
- coefficient of change in oxidation (OD ratio, oxidation-treated / not treated) [27]: 1.8
- ELISA measured value (OD 450 nm), % of sample stored at -80 C [28]: 104 to 113%
- ELISA measured value (OD 450 nm), % of sample stored at -80 C [29]: 117 to 143%
